Data published in US20210403595 (published 2021).
Read-outs that look alike come from different tables or passages of the source.

How the values were obtained:
[1] = molecular target: human PSMA, N-terminal 6xHis (soluble) (human); assay: SPR, 37C
[2] = molecular target: human CD3 on Jurkat cells (human); assay: FACS
human PSMA on cells = human PSMA on cells (human); assay: FACS, 22RV1
[3] = molecular target: human CD3 on Jurkat cells (human); assay: FACS; remark: listed apart in the source
[4] = molecular target: human CD3 epsilon/delta heterodimer, Fc-tagged (human); assay: SPR, 25C antigen-capture
Sequence of human CD3 epsilon/delta heterodimer, Fc-tagged (human) (chain, as listed by the source mutant, chain 1 of 2): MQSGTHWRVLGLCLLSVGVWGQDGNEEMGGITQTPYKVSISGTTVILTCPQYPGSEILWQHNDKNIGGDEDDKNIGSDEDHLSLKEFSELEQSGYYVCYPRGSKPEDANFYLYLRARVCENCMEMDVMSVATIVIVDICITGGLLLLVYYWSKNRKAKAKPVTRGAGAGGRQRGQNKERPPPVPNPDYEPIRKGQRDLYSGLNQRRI
Sequence of human CD3 epsilon/delta heterodimer, Fc-tagged (human) (chain, as listed by the source mutant, chain 2 of 2): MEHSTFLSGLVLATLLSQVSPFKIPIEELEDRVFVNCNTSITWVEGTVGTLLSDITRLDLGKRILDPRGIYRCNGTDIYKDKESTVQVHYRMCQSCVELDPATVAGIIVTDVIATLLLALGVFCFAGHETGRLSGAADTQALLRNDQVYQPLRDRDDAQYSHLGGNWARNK

Sequence of human CD3 on Jurkat cells (human) (chain, as listed by the source, chain 1 of 2): as the sequence (chain, as listed by the source mutant, chain 1 of 2) above
Sequence of human CD3 on Jurkat cells (human) (chain, as listed by the source, chain 2 of 2): as the sequence (chain, as listed by the source mutant, chain 2 of 2) above
Sequence of human PSMA, N-terminal 6xHis (soluble) (human) (A4UU12 whole entry): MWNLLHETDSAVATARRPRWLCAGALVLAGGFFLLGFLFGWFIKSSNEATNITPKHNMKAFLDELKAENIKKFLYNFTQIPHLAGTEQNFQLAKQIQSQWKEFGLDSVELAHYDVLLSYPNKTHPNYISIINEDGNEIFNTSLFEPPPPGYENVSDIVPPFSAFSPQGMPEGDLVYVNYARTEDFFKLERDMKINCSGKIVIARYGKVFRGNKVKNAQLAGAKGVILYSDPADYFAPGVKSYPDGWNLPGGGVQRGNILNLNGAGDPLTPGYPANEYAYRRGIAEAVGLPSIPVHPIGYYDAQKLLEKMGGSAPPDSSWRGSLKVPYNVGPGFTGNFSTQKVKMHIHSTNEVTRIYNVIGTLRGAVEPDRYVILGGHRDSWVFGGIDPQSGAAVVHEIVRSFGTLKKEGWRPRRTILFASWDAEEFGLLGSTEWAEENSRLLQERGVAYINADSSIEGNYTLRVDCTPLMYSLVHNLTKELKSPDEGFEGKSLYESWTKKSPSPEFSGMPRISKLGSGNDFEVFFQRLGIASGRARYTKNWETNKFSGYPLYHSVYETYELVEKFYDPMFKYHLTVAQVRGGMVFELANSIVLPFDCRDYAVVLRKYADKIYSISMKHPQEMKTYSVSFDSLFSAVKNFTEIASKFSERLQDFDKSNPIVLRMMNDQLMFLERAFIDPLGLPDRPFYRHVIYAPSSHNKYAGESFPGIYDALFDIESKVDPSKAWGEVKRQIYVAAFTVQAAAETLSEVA
Sequence of human PSMA on cells (human) (A4UU12 whole entry): as above

B1: H1H11835P2 (antibody, V domains shown)
VH: EVQLVESGGGLVQSGGSLRLSCEASGFTFSNYWMTWIRQGPGKGLEWVANIKPDGTENYYVDSVKGRFTISRDNARNSLYLQMTSLKAEDTAVYYCGRMIQFVINIWGQGTLVTVSS
VL: DIQMTQSPSSLSASVGDSVTITCRASQSINNYLNWYQQKPGKAPKLLIYTASSLLSGVPSRFSGSGSGTDFTLTISGLHPEDFATYFCQQSFSTPPITFGQGTRLDIK
- Kd [1]: 14 nM

B2: H2M2689N (antibody, V domains shown)
VH: QVQLVESGGGVVQPGRSLRLSCAASGFTFSRKGMHWVRQAPVKGLEWVAVISYDGSNKYYADSVKGRFTISRDNSKNTLYLQMNSLTAEDTAVYYCAKEGGHDYGGTFDYWGQGTLVTVSS
VL: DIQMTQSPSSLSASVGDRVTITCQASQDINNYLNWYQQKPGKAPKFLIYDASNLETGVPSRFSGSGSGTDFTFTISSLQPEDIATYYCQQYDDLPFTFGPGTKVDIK
- binding result [2]: no binding

B3: BSPSMA/CD3-001 PSMA arm (antibody, V domains shown)
VH: QVQLVESGGGVVQPGRSLRLSCAASGFTFITYGMHWVRQAPGKGLEWVAIIYYDESNKYYADSVKGRFTISRDISKNTLYLQMNGLRAEDTAVYYCARAPRVAVEEDYSYYYGMDVWGQGTTVTVSS
VL: EIVMTQSPATLSVSPGERAILSCRASQNINSNLAWYQQKPGQAPRLLIYGASTRATGVPARFSGSGSGTEFTLTIRSLQSEDFAVYYCQQYYNWPITFGHGTRLEIK
- EC50 (human PSMA on cells): 78.5 nM

B4: H1H7279P (antibody, V domains shown)
VH: EVQLVESGGGLVKPGGSLRISCAASGFSFINAWMNWVRQAPGKGLEWVGRIKSISDGGTTDYAASVKGRFTISREDSKNMLFLEMNSLKTEDTAVFYCTTEVARTPNYWGRGTLVTVSS
VL: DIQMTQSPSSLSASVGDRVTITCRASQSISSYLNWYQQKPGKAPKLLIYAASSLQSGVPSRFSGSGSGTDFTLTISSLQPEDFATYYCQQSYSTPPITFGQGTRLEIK
- binding result [3]: no binding
- binding result [4]: no binding
